From article PMC9182532, “The RHIM of the Immune Adaptor Protein TRIF Forms Hybrid Amyloids with Other Necroptosis-Associated Proteins” (Molecules, 2022)

B1: mCherry-RIPK1_(497–583) (domain or fragment, human, UniProt Q13546 497-583, looked up)
chain: MPSLHNIPVPETNYLGNTPTMPFSSLPPTDESIKYTIYNSTGIQIGAYNYMEIGGTSSSLLDSTNTNFKEEPAAKYQAIFDNTTSLT
notes: also called RIPK1 RHIM construct; source: E. coli BL21(DE3), solubilised in 8 M urea, purified (Ni-NTA); not shown: mCherry, N-terminal, kept
B2: Ub-TRIF_(601–712) (domain or fragment, human, UniProt Q8IUC6 601-712, looked up)
chain: APYGARMPFGGQVPLGAPPPFPTWPGCPQPPPLHAWQAGTPPPPSPQPAAFPQSLPFPQSPAFPTASPAPPQSPGLQPLIIHHAQMVQLGLNNHMWNQRGSQAPEDKTQEAE
notes: Kept as monomer in 8 M urea; assembly is started by removing the denaturant; also called wildtype TRIF RHIM; source: E. coli BL21(DE3), solubilised in 8 M urea, purified (Ni-NTA); not shown: ubiquitin, N-terminal, kept
B3: YPet-TRIF_(601–712) (domain or fragment, human, UniProt Q8IUC6 601-712, looked up)
chain: B2 chain
notes: source: E. coli BL21(DE3), solubilised in 8 M urea, purified (Ni-NTA); not shown: YPet, N-terminal, kept

Columns and labels:
YPet-TRIF_(601–712) = target: B3; test: SDS-agarose gel electrophoresis (SDS-AGE); 5 µM alone or equimolar mixtures, kept in 8 M urea (monomer control) or dialysed overnight against 100 mM NaH2PO4, 20 mM Tris, 0.5 mM DTT, pH 8.0, with or without 2% SDS for 10 min; 1% agarose gel with 0.1% SDS; YPet and mCherry fluorescence imaged and overlaid; details: both partners purified
[1] = target: the molecule itself; test: as above
[2] = target: the molecule itself; test: thioflavin T fluorescence + Congo red absorbance; self-assembly started by dilution from urea into 25 mM NaH2PO4, 150 mM NaCl, pH 7.4, 40 µM ThT, 0.5 mM DTT, 37 °C, 2.5 µM (0.625–5 µM in the concentration series); Congo red on samples dialysed overnight at 0.3 mg/mL

binding result (YPet-TRIF_(601–712)) | Binder | binding result [1] | binding result [2]
binds | B1 | binds | –
– | B2 | – | binds
– | B3 | binds | –
